According to PMC3973309:
Where a chain is given by its changes, count along the chain named.

T1: BfiI-C (C-terminal DNA-binding domain) (UniProt Q9F4C9 193-358)
T1 sequence: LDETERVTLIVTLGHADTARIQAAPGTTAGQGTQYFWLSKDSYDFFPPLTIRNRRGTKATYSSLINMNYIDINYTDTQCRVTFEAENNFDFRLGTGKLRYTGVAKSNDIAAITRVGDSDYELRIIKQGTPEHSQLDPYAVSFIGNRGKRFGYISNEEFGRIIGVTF

T2: BfiI K250A (UniProt Q9F4C9 1-358, K250A)
T2 sequence: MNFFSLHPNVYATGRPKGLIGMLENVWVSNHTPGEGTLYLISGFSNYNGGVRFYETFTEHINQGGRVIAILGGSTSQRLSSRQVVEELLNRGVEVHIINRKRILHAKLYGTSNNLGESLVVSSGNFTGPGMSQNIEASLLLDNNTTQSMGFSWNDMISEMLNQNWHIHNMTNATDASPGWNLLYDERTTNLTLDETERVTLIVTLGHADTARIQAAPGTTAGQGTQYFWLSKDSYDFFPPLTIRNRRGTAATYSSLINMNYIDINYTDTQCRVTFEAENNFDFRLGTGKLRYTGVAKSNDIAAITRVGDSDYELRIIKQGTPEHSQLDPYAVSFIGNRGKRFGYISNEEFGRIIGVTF

T3: BfiI Q226A (UniProt Q9F4C9 1-358, Q226A)
T3 sequence: T2 sequence with Q226A, A250K

T4: BfiI R272A (UniProt Q9F4C9 1-358, R272A)
T4 sequence: T2 sequence with A250K, R272A

T5: BfiI R212A (UniProt Q9F4C9 1-358, R212A)
T5 sequence: T2 sequence with R212A, A250K

T6: BfiI Y227A (UniProt Q9F4C9 1-358, Y227A)
T6 sequence: T2 sequence with Y227A, A250K

T7: BfiI R291A (UniProt Q9F4C9 1-358, R291A)
T7 sequence: T2 sequence with A250K, R291A

T8: BfiI W229A (UniProt Q9F4C9 1-358, W229A)
T8 sequence: T2 sequence with W229A, A250K

T9: BfiI E276A (UniProt Q9F4C9 1-358, E276A)
T9 sequence: T2 sequence with A250K, E276A

T10: BfiI Q223A (UniProt Q9F4C9 1-358, Q223A)
T10 sequence: T2 sequence with Q223A, A250K

T11: BfiI N245A (UniProt Q9F4C9 1-358, N245A)
T11 sequence: T2 sequence with N245A, A250K

T12: BfiI T225A (UniProt Q9F4C9 1-358, T225A)
T12 sequence: T2 sequence with T225A, A250K

B1: 12/12 (dsDNA)
DNA 1: AGCACTGGGTCG
DNA 2: CGACCCAGTGCT
B2: 16SP (dsDNA)
DNA 1: AGCGTAGCACTGGGCT
DNA 2: AGCCCAGTGCTACGCT

Tests used:
[1] = target: T1, BfiI-C (C-terminal DNA-binding domain); experiment: X-ray crystallography
[2] = target: T2, BfiI K250A; experiment: EMSA
[3] = target: T3, BfiI Q226A; experiment: EMSA
[4] = target: T4, BfiI R272A; experiment: EMSA
[5] = target: T5, BfiI R212A; experiment: EMSA
[6] = target: T6, BfiI Y227A; experiment: EMSA
[7] = target: T7, BfiI R291A; experiment: EMSA
[8] = target: T8, BfiI W229A; experiment: EMSA
[9] = target: T9, BfiI E276A; experiment: EMSA
[10] = target: T10, BfiI Q223A; experiment: EMSA
[11] = target: T11, BfiI N245A; experiment: EMSA
[12] = target: T12, BfiI T225A; experiment: EMSA

Binder | binding result [1] | binding signal [2] | binding signal [3] | binding signal [4] | binding signal [5] | binding signal [6] | binding signal [7] | binding signal [8] | binding signal [9] | binding signal [10] | binding signal [11] | binding signal [12]
B1 | binds | – | – | – | – | – | – | – | – | – | – | –
B2 | – | 2 % of WT KA | 50 % of WT KA | 1 % of WT KA | 2 % of WT KA | 5 % of WT KA | 2 % of WT KA | 1 % of WT KA | 10 % of WT KA | 100 % of WT KA | 100 % of WT KA | 10 % of WT KA
